Test results taken from article PMC6231261, “Enhanced triacylglycerol production in the diatom Phaeodactylum tricornutum by inactivation of a Hotdog-fold thioesterase gene using TALEN-based targeted mutagenesis” (Biotechnology for Biofuels, 2018).

Columns and labels:
Assay in all cases: DTNB spectrophotometric CoA release (A412)
Format in all cases: biochemical, Phaeodactylum tricornutum
[1] = substrate: CCCCCCCC/C=C\CCCCCCCC(=O)SCCNC(=O)CCNC(=O)[C@H](O)C(C)(C)COP(=O)(O)OP(=O)(O)OC[C@H]1O[C@@H](n2cnc3c(N)ncnc32)[C@H](O)[C@@H]1OP(=O)(O)O; settings: 10 mM HEPES pH 7.5, 50 mM KCl, 0.3 mM DTNB, room temperature in methods (37 °C in Fig. 1 legend), substrate inhibition above 60 μM
Source text: (§1) DTNB spectrophotometric CoA release (A412) on ptTES1

[2] = substrate: CCCCCCCCCCCCCCCCCC(=O)SCCNC(=O)CCNC(=O)[C@H](O)C(C)(C)COP(=O)(O)OP(=O)(O)OC[C@H]1O[C@@H](n2cnc3c(N)ncnc32)[C@H](O)[C@@H]1OP(=O)(O)O; settings: 10 mM HEPES pH 7.5, 50 mM KCl, 0.3 mM DTNB, room temperature in methods (37 °C in Fig. 1 legend)
Source text: as §1

[3] = substrate: CCCCCCCCCCCCCC(=O)SCCNC(=O)CCNC(=O)[C@H](O)C(C)(C)COP(=O)(O)OP(=O)(O)OC[C@H]1O[C@@H](n2cnc3c(N)ncnc32)[C@H](O)[C@@H]1OP(=O)(O)O; settings: 10 mM HEPES pH 7.5, 50 mM KCl, 0.3 mM DTNB, room temperature in methods (37 °C in Fig. 1 legend)
Source text: as §1

[4] = substrate: CC/C=C\C/C=C\C/C=C\C/C=C\C/C=C\CCCC(=O)SCCNC(=O)CCNC(=O)[C@H](O)C(C)(C)COP(=O)(O)OP(=O)(O)OC[C@H]1O[C@@H](n2cnc3c(N)ncnc32)[C@H](O)[C@@H]1OP(=O)(O)O; settings: 10 mM HEPES pH 7.5, 50 mM KCl, 0.3 mM DTNB, room temperature in methods (37 °C in Fig. 1 legend)
Source text: as §1

[5] = substrate: CC(C)(COP(=O)(O)OP(=O)(O)OC[C@H]1O[C@@H](n2cnc3c(N)ncnc32)[C@H](O)[C@@H]1OP(=O)(O)O)[C@@H](O)C(=O)NCCC(=O)NCCSC(=O)CC(=O)O; settings: 10 mM HEPES pH 7.5, 50 mM KCl, 0.3 mM DTNB, room temperature in methods (37 °C in Fig. 1 legend)
Source text: as §1

[6] = substrate: CCCCCCCCCCCCCCCC(=O)SCCNC(=O)CCNC(=O)[C@H](O)C(C)(C)COP(=O)(O)OP(=O)(O)OC[C@H]1O[C@@H](n2cnc3c(N)ncnc32)[C@H](O)[C@@H]1OP(=O)(O)O; settings: 10 mM HEPES pH 7.5, 50 mM KCl, 0.3 mM DTNB, room temperature in methods (37 °C in Fig. 1 legend), substrate inhibition above 60 μM
Source text: as §1

[7] = substrate: CCCCCCCCCC(=O)SCCNC(=O)CCNC(=O)[C@H](O)C(C)(C)COP(=O)(O)OP(=O)(O)OC[C@H]1O[C@@H](n2cnc3c(N)ncnc32)[C@H](O)[C@@H]1OP(=O)(O)O; settings: 10 mM HEPES pH 7.5, 50 mM KCl, 0.3 mM DTNB, room temperature in methods (37 °C in Fig. 1 legend)
Source text: as §1

B1: ptTES1 (Phaeodactylum tricornutum CCAP 1055/1) (protein)
chain: MGLIHTPRTIVSIAKGLWKRRQGTVDWPGLGPDKPYVYNARLGLFDVDYLGHLNNAAYLSHAELARWELTAANGMLTSMLQSGTNFIVSGSCIRYRQEIRPVFRKFQVDTYVAGLDQRTIWMVQNFRYPGQNERIRAQMIVQGVAVQKTKGIIDPRSFFVDTVGMPSDLIESVNLPITSDDTVEDVLERYSFLEKALRRAATVDDELQKKEANKE
notes: codon-optimized synthetic gene in pET28a, His6-tagged, E. coli Rosetta (DE3), Ni-NTA purified, about 25 kDa on SDS-PAGE; tag removal not mentioned
B1 showed a Km [1] of 12.37 µM, a Vmax [1] of 0.0508 µmol/min/mg and a kcat [1] of 0.022 s⁻¹. The kcat/Km [1] was 1780 M⁻¹ s⁻¹, the Km [2] was 8.246 µM and the Vmax [2] was 0.0451 µmol/min/mg. It also gave a kcat [2] of 0.0196 s⁻¹, a kcat/Km [2] of 2370 M⁻¹ s⁻¹ and a Km [3] of 21.79 µM. For the same protein, the Vmax [3] was 0.0302 µmol/min/mg, the kcat [3] was 0.0131 s⁻¹ and the kcat/Km [3] was 602 M⁻¹ s⁻¹. The Km [4] was 38.61 µM, the Vmax [4] was 0.0164 µmol/min/mg and the kcat [4] was 0.0071 s⁻¹. For the same protein, the kcat/Km [4] was 184 M⁻¹ s⁻¹, the Km [5] was 14.64 µM and the Vmax [5] was 0.00205 µmol/min/mg. The kcat [5] was 0.0009 s⁻¹, the kcat/Km [5] was 60.7 M⁻¹ s⁻¹ and the Km [6] was 14.76 µM. It also gave a Vmax [6] of 0.0453 µmol/min/mg, a kcat [6] of 0.0196 s⁻¹ and a kcat/Km [6] of 1330 M⁻¹ s⁻¹. The Km [7] was 91.76 µM, the Vmax [7] was 0.0228 µmol/min/mg and the kcat [7] was 0.0099 s⁻¹. For the same protein, the kcat/Km [7] was 108 M⁻¹ s⁻¹.
